Test results from patent US20160053007A1.

Molecular target: DR3 on mouse CD4+ T cells (mouse)
Assay: cell-based or functional assay

DR3 on mouse CD4+ T cells (mouse), sequence (Q9QZZ6 19-201): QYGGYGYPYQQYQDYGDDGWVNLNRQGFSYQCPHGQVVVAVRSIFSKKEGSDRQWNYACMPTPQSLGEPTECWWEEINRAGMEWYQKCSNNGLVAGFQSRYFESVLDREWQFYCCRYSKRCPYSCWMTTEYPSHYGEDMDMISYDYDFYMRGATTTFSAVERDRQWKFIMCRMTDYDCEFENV

IL-2 production by activated T cells, increase by TL1A: < 2 fold
IL-4 production by activated T cells, increase by TL1A: 10 fold
interferon-γ production by activated T cells, increase by TL1A: < 2 fold
Substance: recombinant mouse TL1A (from UniProt Q5UBV8 76-252) (ligand)
